One series deals with T1, GST-Aim21 (S. cerevisiae, UniProt P40563 1-679).
T1 sequence (looked up): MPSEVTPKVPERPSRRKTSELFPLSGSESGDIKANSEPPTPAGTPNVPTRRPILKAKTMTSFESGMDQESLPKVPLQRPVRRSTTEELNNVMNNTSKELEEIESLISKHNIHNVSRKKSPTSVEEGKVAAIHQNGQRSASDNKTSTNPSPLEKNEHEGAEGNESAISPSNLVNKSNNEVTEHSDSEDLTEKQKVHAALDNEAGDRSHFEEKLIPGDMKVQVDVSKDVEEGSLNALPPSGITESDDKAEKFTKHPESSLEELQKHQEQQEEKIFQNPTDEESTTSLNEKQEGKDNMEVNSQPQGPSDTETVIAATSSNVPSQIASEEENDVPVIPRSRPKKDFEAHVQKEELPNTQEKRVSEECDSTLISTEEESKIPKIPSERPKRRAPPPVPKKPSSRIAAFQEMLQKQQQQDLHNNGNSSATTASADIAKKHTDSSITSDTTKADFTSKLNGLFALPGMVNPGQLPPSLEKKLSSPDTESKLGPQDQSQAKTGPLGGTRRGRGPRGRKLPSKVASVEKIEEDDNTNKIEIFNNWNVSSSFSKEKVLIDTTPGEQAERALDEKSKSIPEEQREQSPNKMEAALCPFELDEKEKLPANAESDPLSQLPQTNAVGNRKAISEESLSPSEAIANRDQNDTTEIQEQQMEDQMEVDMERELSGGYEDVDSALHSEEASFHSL
As to the kind of experiment: pull-down.

The series “AUC” concerns the molecule itself. As to the kind of experiment: AUC.
In series [1] the target is T2, reconstituted Tda2–Aim21 complex (GST-Aim21–His-Tda2 complex) (S. cerevisiae, UniProt P40563 1-679; P40045 1-126).
T2 sequence (looked up) 1: T1 sequence (looked up)
T2 sequence (looked up) 2: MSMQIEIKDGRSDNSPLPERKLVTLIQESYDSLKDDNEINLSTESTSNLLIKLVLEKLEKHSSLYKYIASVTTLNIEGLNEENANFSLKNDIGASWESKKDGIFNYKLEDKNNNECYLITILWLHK
As to the kind of experiment: pull-down.

The term stoichiometry N denotes a count of units in the complex or per binding partner.

B1: recombinant 6-histidine-tagged Tda2 (natural protein, S. cerevisiae, UniProt P40045 1-126, looked up)
chain: T2 sequence (looked up) 2
As to B1, the binding result with GST-Aim21 was “binds”. Moreover, the “stoichiometry N” value in the series “AUC” was 2.

B2: actin-capping protein carrying a 6His-tag in its Cap1 subunit (His-Cap1/Cap2 dimer) (complex, S. cerevisiae)
chain 1: MSSSKFEEVINKIINDSPPGELREVYDDLIKITSENSKNTILDAIENYNVQNCIPIEVNGNSVIISKYNKEGAKFFDPVNSVIFSVNHLERKGLDIEPYEFTHAKIEKGQLKELHDKLHEYLLQSFPGDVSFAVYPVPEEISKISIIIVSTKYNPNNFWNGHWRSSYIYDLETRELSGQISTQVHYYEDGNVSFQSGKDINQSNVDDVVCTIRDIETNFENDLDLSFFDLNEKQFKALRRRLPVTRSKINWGSAIGSYRLGKNAAEGK
chain 2: MSDAQFDAALDLLRRLNPTTLQENLNNLIELQPNLAQDLLSSVDVPLSTQKDSADSNREYLCCDYNRDIDSFRSPWSNTYYPELSPKDLQDSPFPSAPLRKLEILANDSFDVYRDLYYEGGISSVYLWDLNEEDFNGHDFAGVVLFKKNQSDHSNWDSIHVFEVTTSPSSPDSFNYRVTTTIILHLDKTKTDQNSHMMLSGNLTRQTEKDIAIDMSRPLDVIFTSHVANLGSLIEDIESQMRNLLETVYFEKTRDIFHQTKNAAIASSAEEANKDAQAEVIRGLQSL
For the molecule B2, the binding result in series [1] was “binds”.

Values taken from PMC5551697 (The Journal of Cell Biology, 2017).
